The record followed here is article PMC10572780, “MucR from Sinorhizobium meliloti: New Insights into Its DNA Targets and Its Ability to Oligomerize” (International Journal of Molecular Sciences, 2023).

In series [1] the target is T1, rMucR (recombinant MucR) (Sinorhizobium meliloti 1021, UniProt P55323 1-143).
T1 sequence: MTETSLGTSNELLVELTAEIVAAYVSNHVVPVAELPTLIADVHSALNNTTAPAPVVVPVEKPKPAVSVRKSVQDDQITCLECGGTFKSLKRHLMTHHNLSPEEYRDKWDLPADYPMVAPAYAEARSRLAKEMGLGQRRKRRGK
The experiment in a line: EMSA; 20 pmol rMucR, 10 pmol DNA, no competitor; 25 mM HEPES pH 7.9, 50 mM KCl, 6.25 mM MgCl2, 5% glycerol; 10 min on ice (plus 10 min on ice after competitor); 5% polyacrylamide gel, 0.5x TBE, room temperature, 200 V, 70 min. The following applies: protein: recombinant; tags: none (pET22b+, NdeI/XhoI, native stop codon in reverse primer); chain copies: 10; label: FAM.

Series [2] deals with T1, rMucR (recombinant MucR). The experiment in a line: EMSA; 10 pmol DNA; 25 mM HEPES pH 7.9, 50 mM KCl, 6.25 mM MgCl2, 5% glycerol; 10 min on ice (plus 10 min on ice after competitor); 5% polyacrylamide gel, 0.5x TBE, room temperature, 200 V, 70 min. The following applies: protein: recombinant; tags: none (pET22b+, NdeI/XhoI, native stop codon in reverse primer); chain copies: 10.

Series [3] has as its target T1, rMucR (recombinant MucR). The series can be described thus: competition; vs FAM-rem site3; 5-, 10-, 20-fold excess; does not effectively compete; 25 mM HEPES pH 7.9, 50 mM KCl, 6.25 mM MgCl2, 5% glycerol; 10 min on ice (plus 10 min on ice after competitor); 5% polyacrylamide gel, 0.5x TBE, room temperature, 200 V, 70 min. The following applies: protein: recombinant; tags: none (pET22b+, NdeI/XhoI, native stop codon in reverse primer); chain copies: 10.

Series [4] has as its target T1, rMucR (recombinant MucR). The series can be described thus: EMSA; minimal length with detectable binding; 25 mM HEPES pH 7.9, 50 mM KCl, 6.25 mM MgCl2, 5% glycerol; 10 min on ice (plus 10 min on ice after competitor); 5% polyacrylamide gel, 0.5x TBE, room temperature, 200 V, 70 min. The following applies: protein: recombinant; tags: none (pET22b+, NdeI/XhoI, native stop codon in reverse primer); chain copies: 10.

Series [5] deals with the molecule itself. The experiment in a line: SEC-MALS; samples at 1 mg/mL on Superdex 200 in the buffer of the final purification step, 0.5 mL/min; MiniDAWN Treos; higher-order oligomer, no monomer or lower-order oligomers seen.
Series [6] has as its target T2, native MucR (Sinorhizobium meliloti 1021, UniProt P55323 2-143).
T2 sequence: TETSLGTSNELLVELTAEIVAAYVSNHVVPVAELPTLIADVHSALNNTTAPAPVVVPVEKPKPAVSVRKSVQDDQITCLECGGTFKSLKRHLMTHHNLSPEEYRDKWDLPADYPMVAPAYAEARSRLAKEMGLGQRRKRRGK
The series can be described thus: EMSA; 25 mM HEPES pH 7.9, 50 mM KCl, 6.25 mM MgCl2, 5% glycerol; 10 min on ice (plus 10 min on ice after competitor); 5% polyacrylamide gel, 0.5x TBE, room temperature, 200 V, 70 min. The following applies: protein: native; tags: none.

B1: FAM-labeled rem site3 (dsDNA)
DNA 1: CACGCAATTCTTAATCAACTATTAAAATCC
DNA 2: GGATTTTAATAGTTGATTAAGAATTGCGTG
Take B1: the binding result in series [1] is given as “binds”.

B2: rem site1 (dsDNA)
DNA 1: ATCACCTACTAGATATAGGCCCAAATCGGC
DNA 2: GCCGATTTGGGCCTATATCTAGTAGGTGAT
On to B2, for which the binding result in series [2] is recorded as “binds”.

B3: rem site3 mut2 (dsDNA)
DNA 1: CGCGCGGCCCCCGGCCGGCCGCCGGGGCCC
DNA 2: GGGCCCCGGCGGCCGGCCGGGGGCCGCGCG
For B3, the binding result in series [3] is “no binding”.

B4: rem site3 18 bp (dsDNA)
DNA 1: ATTCTTAATCAACTATTA
DNA 2: TAATAGTTGATTAAGAAT
As to B4, in series [4], the binding result is “binds”.

B5: recombinant S. meliloti MucR (natural protein, Sinorhizobium meliloti 1021, UniProt P55323 1-143, looked up)
chain: MTETSLGTSNELLVELTAEIVAAYVSNHVVPVAELPTLIADVHSALNNTTAPAPVVVPVEKPKPAVSVRKSVQDDQITCLECGGTFKSLKRHLMTHHNLSPEEYRDKWDLPADYPMVAPAYAEARSRLAKEMGLGQRRKRRGK
notes: Expressed with 100 uM zinc sulfate; Oligomer by SEC-MALS corresponds to a decamer (9 to 12 protomers not excluded); also called rMucR; recombinant MucR; source: E. coli BL21(DE3), pET22b+, purified (cation exchange chromatography, size exclusion chromatography); copies: 10
On to B5, for which, in series [5], the “stoichiometry N” value was found to be 10.

B6: rem site2 (dsDNA)
DNA 1: CATCATGTTAGTGGTAAGGTTAACGATCAC
DNA 2: GTGATCGTTAACCTTACCACTAACATGATG
On to B6, for which the binding result in series [2] is “binds”.

B7: MucR purified from S. meliloti (natural protein, Sinorhizobium meliloti 1021, UniProt P55323 2-143, looked up)
chain: TETSLGTSNELLVELTAEIVAAYVSNHVVPVAELPTLIADVHSALNNTTAPAPVVVPVEKPKPAVSVRKSVQDDQITCLECGGTFKSLKRHLMTHHNLSPEEYRDKWDLPADYPMVAPAYAEARSRLAKEMGLGQRRKRRGK
notes: MucR from Sinorhizobium meliloti 1021, naturally expressed; 9 to 12 protomers not excluded; also called native MucR; naturally expressed MucR; source: endogenous, purified from S. meliloti 1021 (cation exchange chromatography, size exclusion chromatography); copies: 10
B7: the “stoichiometry N” value in series [5] stood at 10.

B8: rem site3 (dsDNA)
DNA 1: CACGCAATTCTTAATCAACTATTAAAATCC
DNA 2: GGATTTTAATAGTTGATTAAGAATTGCGTG
With B8, the binding result in series [2] is given as “binds”.

B9: ndvA upstream region oligonucleotide (dsDNA)
DNA 1: GATAATTCTTCATATCACGCCCGGTCTTGCAGGAAACCTGCAAAAACTCGGAGTCGAGGCATCAAGATAGCTAACGATGAATCAT
DNA 2: ATGATTCATCGTTAGCTATCTTGATGCCTCGACTCCGAGTTTTTGCAGGTTTCCTGCAAGACCGGGCGTGATATGAAGAATTATC
On to B9, for which the binding result in series [6] is “binds”.
